Measured values taken from paper PMC4465237 (The Biochemical journal, 2013).

Target: T1, FLAG-hSIRT1-FL (full length human SIRT1, FLAG-tagged) (human, UniProt Q96EB6 1-747)
T1 sequence (looked up): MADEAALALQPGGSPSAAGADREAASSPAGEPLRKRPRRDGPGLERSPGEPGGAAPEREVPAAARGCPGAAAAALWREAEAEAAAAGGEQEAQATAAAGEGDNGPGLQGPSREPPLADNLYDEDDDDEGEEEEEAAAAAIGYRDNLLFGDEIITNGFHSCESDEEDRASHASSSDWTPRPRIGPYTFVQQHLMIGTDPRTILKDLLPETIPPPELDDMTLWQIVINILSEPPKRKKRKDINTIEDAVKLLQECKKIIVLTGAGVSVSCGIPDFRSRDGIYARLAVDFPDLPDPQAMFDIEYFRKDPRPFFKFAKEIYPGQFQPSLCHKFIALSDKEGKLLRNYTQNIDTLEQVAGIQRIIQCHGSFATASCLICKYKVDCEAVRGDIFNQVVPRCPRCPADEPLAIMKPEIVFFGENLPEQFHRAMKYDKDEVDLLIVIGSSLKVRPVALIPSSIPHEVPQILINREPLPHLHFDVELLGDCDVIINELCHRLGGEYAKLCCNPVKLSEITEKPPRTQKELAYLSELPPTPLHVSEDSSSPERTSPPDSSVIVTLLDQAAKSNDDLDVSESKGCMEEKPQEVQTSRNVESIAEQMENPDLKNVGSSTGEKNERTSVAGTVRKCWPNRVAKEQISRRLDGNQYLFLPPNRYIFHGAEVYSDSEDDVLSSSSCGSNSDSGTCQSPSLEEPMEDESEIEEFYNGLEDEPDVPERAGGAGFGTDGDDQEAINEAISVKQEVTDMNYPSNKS
Assay: pull-down

binding result: binds
B1: GST-TDG(67–308) (domain or fragment, human, UniProt Q13569 67-308, looked up)
chain: TTEPKQPVEPKKPVESKKSGKSAKSKEKQEKITDTFKVKRKVDRFNGVSEAELLTKTLPDILTFNLDIVIIGINPGLMAAYKGHHYPGPGNHFWKCLFMSGLSEVQLNHMDDHTLPGKYGIGFTNMVERTTPGSKDLSSKEFREGGRILVQKLQKYQPRIAVFNGKCIYEIFSKEVFGVKVKNLEFGLQPHKIPDTETLCYVMPSSSARCAQFPRAQDKVHYYIKLKDLRDQLKGIERNMDV
